# Experimental data as given in paper PMC3526285.
# Tested on: TRMT10C (native, untagged, in complex);SDR5C1 (Homo sapiens;Homo sapiens)
# Test: EMSA
# Details: concentration refers to TRMT10C content; EMSA: 1 nM 5'-labelled pre-tRNA, 10 nM-1.2 uM protein, methylation/processing buffer (composition not in material) + 100 mM sucrose, 30 min at room …
row,Substance,Kd [nM]
1,(mt)pre-tRNAHis,143
2,(mt)pre-tRNAIle,88
